Experimental data as given in the RNAGym collection of RNA variant scans (doi:10.1021/acssynbio.7b00057).

B1: Pistol ribozyme (parent)
chain: GGGUCGUUGUUCCAUAAUCGCGUGGAUAUGGCACGCAAGUUUCUACCGGGCACCGUAAAUGUCCGACUGGAGCCGUUCGGGCGGCUAUAAACAGACCUCAGGCCCGAAGCGUGGCGGCACCUGCCGCCGGUGGUAAAAAAGAUCGGAAGAGCACACGUCU

Variants of: B1
Experiment: aptazyme ON/OFF ratio, guanine; higher = stronger switching; co-transcriptional cleavage with and without guanine

Row | Variant | aptazyme ON/OFF ratio
1 | U7A U10C U11G C12A | 1.08
2 | U7C U8A G9C U10C U11A C12U | 1.06
3 | U7G G9A U10C C12A | 1.28
4 | U7A U8A G9U U10C U11G C12G C13G | 1.21
5 | U7G G9U U10A U11G C12A | 1.13
6 | U7A U8C G9A U10C U11C C13A | 1.04
7 | U7C U8A G9C U10C U11G C12U C13G | 1.11
8 | U8G G9A U10C C13G | 1.03
9 | U7G U8G G9U U10A U11C C12G C13U | 1.14
10 | G9U U10A U11A C12G C13U | 1.64
11 | U7C U8C G9A U10G U11G C13U | 1.29
12 | U8A G9A U10C U11C C12G | 1.05
13 | U7G U8G G9C C12A C13G | 1.08
14 | U7A U8C G9U U10A U11A C13A | 1.17
15 | U7A U8A U10G U11C C12A C13A | 1.28
16 | U7C U8G G9C U10C C12A C13U | 1.06
17 | U7C G9U U10C U11G C12G C13G | 1.11
18 | U8G G9C U11G C12G C13G | 1.07
19 | U7A U8A G9C U10G C13G | 1.29
20 | U7A U8A G9A U10G C13G | 1.46
21 | G9A U10C U11G C12G C13A | 1.17

Row | Variant | aptazyme ON/OFF ratio
22 | U7A G9C U10G U11G C13U | 1.1
23 | U7A U8A U10A U11C C13A | 1.04
24 | U7C U10G U11A C12A C13A | 1.2
25 | U7G G9A U11G C12A C13A | 1.06
26 | U7A G9U U10C U11G C12U | 1.34
27 | U7C G9C U11G | 1.06
28 | U7G U8G U11C C12U | 1.37
29 | U7G G9A U11G C13G | 1.1
30 | U8C U10G C12U C13G | 1.11
31 | U7C U8G G9A U11G C12A C13G | 1.17
32 | U7C G9C U11C C13U | 1
33 | U7G U8A G9A U11C C13G | 1.06
34 | U7A U8G G9C U10C U11A C12U C13G | 1.18
35 | U8A G9U U10G U11A C13A | 1.02
36 | U7A U8A U10C U11G C12A C13U | 1.12
37 | U7C U8C G9A U11A C12G C13G | 1.17
38 | U7C U8G G9U C12A C13G | 1.27
39 | U7A U8A G9U C12G C13U | 1.47
40 | U7G G9C U10C C12U C13U | 1.34
41 | U7C U8G G9U U10G C12G C13G | 1.08
42 | U10C U11G C12A C13U | 1.3

Row | Variant | aptazyme ON/OFF ratio
43 | G9C C13A | 1.02
44 | U7A U8C G9A U10C U11C C12A C13G | 1.09
45 | U7A U8A U10G U11G C13U | 1.5
46 | U7G U8A G9C U10A U11G C13U | 1.02
47 | U7G G9C U10A U11A C12U | 1.65
48 | U7C U8G U11A C12G C13A | 1.11
49 | U8C G9A U11A C12U C13U | 1.29
50 | U7C G9U U10A U11G C13U | 1.21
51 | U7C U8A G9C U10A U11G C12U | 1.21
52 | U7A U8C G9A U10G U11A C13G | 1.05
53 | U7G U8C G9U U10A U11A C12U C13U | 1.33
54 | U7G U8C G9C U11A C12U C13U | 1.22
55 | U7C G9A U11C C12G C13A | 1.29
56 | G9U U10G U11C C12U C13U | 1.18
57 | G9U U10C U11C C13U | 1.03
58 | U8G U10G C12U C13U | 1.2
59 | U7A U8C G9U U10C U11C | 0.995
60 | U7G U8A G9U U10A U11G C13U | 1.09
61 | U7G G9U U10C U11A C12A C13G | 1.16
62 | U7G U8C U10G U11C C12U | 1.34
63 | U7A U8C G9C U10G C12G | 1.12

Row | Variant | aptazyme ON/OFF ratio
64 | U8G U10G U11G C12G | 1.07
65 | U7C U8A G9C U11G C12A | 1.06
66 | U7C G9U U10G U11C C12U C13G | 1.05
67 | U7G U8G U11C C13A | 1.41
68 | U7A U8G U10A C12G C13A | 1.24
69 | U8G G9A U10G U11G C12U | 1.12
70 | U8A G9C U10G U11A C13U | 1.02
71 | U7G G9U U10C U11G C13G | 1.22
72 | U7A U8C U10A U11C C12U | 1.03
73 | U7C U8C G9A U10G U11C C13A | 1.24
74 | U7A U8A G9A U11A | 1.16
75 | U7A U8A G9A U10G C12G C13G | 1.11
76 | U7G U8A U11A C12A C13A | 1.35
77 | U7A U8A G9C U10G U11G | 1.66
78 | U8A G9A U10G U11G C13A | 1.17
79 | U7C U8G G9A U10A U11C C12A C13A | 1.15
80 | U8G G9U U10G U11G C13G | 1.03
81 | U8C U10G U11G C12U | 1.32
82 | U7A U8C G9U U11A | 1.19
83 | G9A U10A U11A C12G | 1.83
